Legend:
[1] = target: human FcγRIIa (R&D Systems, 1330-CD) (human) (UniProt P12318); assay: SPR, BIAcore 3000; FcγR immobilised, 500 µg/ml injected
[2] = target: human FcγRIIb/c (R&D Systems, 1875-CD) (human) (UniProt P31994); assay: SPR, Biacore T200; FcγR immobilised, 500 µg/ml injected
[3] = target: human FcγRIIa (R&D Systems, 1330-CD) (human) (UniProt P12318); assay: as above
[4] = target: human FcγRI (R&D Systems, 1257-FC) (human) (UniProt P12314); assay: SPR, Biacore T200; FcγR immobilised, 200 µg/ml injected
Sequence of human FcγRI (R&D Systems, 1257-FC) (human) (P12314 16-288 limits assumed): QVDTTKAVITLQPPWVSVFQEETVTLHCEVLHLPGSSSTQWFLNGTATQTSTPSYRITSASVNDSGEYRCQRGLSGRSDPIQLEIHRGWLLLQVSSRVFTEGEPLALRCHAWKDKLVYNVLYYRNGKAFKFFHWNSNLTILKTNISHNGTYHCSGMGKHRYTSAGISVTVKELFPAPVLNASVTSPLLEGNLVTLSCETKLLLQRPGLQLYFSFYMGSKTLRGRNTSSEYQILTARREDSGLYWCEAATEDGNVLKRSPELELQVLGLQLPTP

[5] = target: human FcγRIIIa (R&D Systems, 4325-FC) (human) (UniProt P08637); assay: as above
Sequence of human FcγRIIIa (R&D Systems, 4325-FC) (human) (P08637 17-208 limits assumed): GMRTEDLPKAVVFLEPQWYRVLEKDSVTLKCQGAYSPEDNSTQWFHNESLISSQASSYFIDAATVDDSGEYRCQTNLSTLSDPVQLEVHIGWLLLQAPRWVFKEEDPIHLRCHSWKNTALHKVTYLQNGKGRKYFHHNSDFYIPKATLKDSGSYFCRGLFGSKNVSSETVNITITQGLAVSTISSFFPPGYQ

[6] = target: human FcγRIIb/c (R&D Systems, 1875-CD) (human) (UniProt P31994); assay: SPR, BIAcore 3000; FcγR immobilised, 500 µg/ml injected
[7] = target: human FcγRI (R&D Systems, 1257-FC) (human) (UniProt P12314); assay: SPR, BIAcore 3000; FcγR immobilised, 100 µg/ml injected
[8] = target: CD20 endogenously expressed on Raji cells (UniProt P11836); assay: cell-based or functional assay
Sequence of CD20 endogenously expressed on Raji cells (P11836 whole entry): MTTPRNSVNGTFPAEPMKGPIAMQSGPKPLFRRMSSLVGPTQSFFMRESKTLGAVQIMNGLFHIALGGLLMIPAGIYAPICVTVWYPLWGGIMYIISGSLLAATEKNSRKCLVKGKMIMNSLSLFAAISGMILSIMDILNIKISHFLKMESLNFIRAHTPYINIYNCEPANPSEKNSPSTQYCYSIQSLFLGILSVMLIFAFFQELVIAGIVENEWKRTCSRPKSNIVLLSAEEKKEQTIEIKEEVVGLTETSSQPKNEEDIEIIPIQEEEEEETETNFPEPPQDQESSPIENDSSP

[9] = target: mouse LAG-3 expressed on cells (mouse) (UniProt Q61790); assay: flow cytometry on HEK cells expressing mouse LAG-3
Sequence of mouse LAG-3 expressed on cells (mouse) (Q61790 24-521 limits assumed): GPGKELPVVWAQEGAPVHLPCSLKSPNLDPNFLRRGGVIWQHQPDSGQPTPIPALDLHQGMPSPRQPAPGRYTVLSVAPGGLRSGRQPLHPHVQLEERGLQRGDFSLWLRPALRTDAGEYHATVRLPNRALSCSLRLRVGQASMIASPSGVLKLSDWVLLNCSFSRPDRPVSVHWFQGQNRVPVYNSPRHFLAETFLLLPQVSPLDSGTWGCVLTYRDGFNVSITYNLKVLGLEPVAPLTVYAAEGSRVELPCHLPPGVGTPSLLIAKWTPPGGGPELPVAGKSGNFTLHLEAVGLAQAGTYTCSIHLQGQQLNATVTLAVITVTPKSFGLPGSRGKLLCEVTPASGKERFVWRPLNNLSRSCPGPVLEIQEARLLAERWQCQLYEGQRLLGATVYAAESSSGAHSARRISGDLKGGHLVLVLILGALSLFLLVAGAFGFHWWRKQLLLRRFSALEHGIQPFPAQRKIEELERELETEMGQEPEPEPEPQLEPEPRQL

[10] = target: mouse LAG-3 expressed on cells (mouse) (UniProt Q61790); assay: flow cytometry on HEK cells expressing murine LAG-3

Sequence of human FcγRIIa (R&D Systems, 1330-CD) (human) (P12318 36-218 limits assumed): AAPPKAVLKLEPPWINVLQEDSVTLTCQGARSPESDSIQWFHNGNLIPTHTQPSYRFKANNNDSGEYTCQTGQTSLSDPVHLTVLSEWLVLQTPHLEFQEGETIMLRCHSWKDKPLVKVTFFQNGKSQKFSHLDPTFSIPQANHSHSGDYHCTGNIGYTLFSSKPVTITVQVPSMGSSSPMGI
Sequence of human FcγRIIb/c (R&D Systems, 1875-CD) (human) (P31994 46-217 limits assumed): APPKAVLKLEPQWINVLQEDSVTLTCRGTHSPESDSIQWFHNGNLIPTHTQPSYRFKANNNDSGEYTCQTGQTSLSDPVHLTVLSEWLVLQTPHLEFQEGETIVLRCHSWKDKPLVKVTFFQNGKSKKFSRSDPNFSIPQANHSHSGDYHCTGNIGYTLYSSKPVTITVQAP

Substance	binding response at end of association (RU) [1]	binding response at end of association (RU) [2]	binding response at end of association (RU) [3]	binding response at end of association (RU) [4]	binding response at end of association (RU) [5]	further results
mouse IgG1 (Sigma, P5305) (antibody)	7 RU	–	–	–	–	–
monoclonal IgG2 isotype mAb to an irrelevant target (antibody)	9 RU	7.4 RU	9.7 RU	0 RU	1.9 RU	–
monoclonal IgG4 isotype mAb to an irrelevant target (antibody)	8 RU	15.1 RU	4.3 RU	9 RU	3.1 RU	binding response at end of association (RU) [6]: 9 RU; binding response at end of association (RU) [7]: 8 RU
anti-CD20 antibody Rituximab (generic version, IgG1 format)	–	–	–	–	–	ADCC, LDH release, maximum lysis of LAG-3 expressing Raji cells [8]: 40%; ADCC, LDH release, maximum lysis of PD-L1 expressing Raji cells [8]: 40%; CDC, LDH release, maximum lysis of PD-L1 expressing Raji cells [8]: < 60%
benchmark anti-mouse LAG-3 mAb C9B7W (2B Scientific, BE0174-50MG) (antibody)	–	–	–	–	–	EC50 [9]: 79 nM; fold poorer affinity (EC50) than the Fcabs [9]: 17 fold; EC50 [10]: 27 nM

— patent US20220185894A1
